According to the supplement of paper PMC9112550, “Optimization of the antimicrobial peptide Bac7 by deep mutational scanning” (BMC Biology, 2022):

system: Escherichia coli TOP10; assay: shrunken log2 fold change of peptide-encoding DNA abundance (4.5 h post-induction vs induction); higher = less antimicrobial activity (less host growth inhibition); conditions: time post-induction: 4.5 h; library: site-saturation at positions 5, 18, 19, 20
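Note: peptides expressed intracellularly from a pBAD plasmid library in pooled LB shake-flask culture, induced with 0.3% L-arabinose, DNA abundance read by NGS, three biological replicates, DESeq2 with apeglm shrinkage.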

Sequence | shrunken log2 fold change
RRIRGRPPRLPRPRPRPMWFPRP | 0.185
RRIRGRPPRLPRPRPRPMWKPRP | 0.0121
RRIRGRPPRLPRPRPRPNADPRP | 2.38
RRIRGRPPRLPRPRPRPNAIPRP | 0.668
RRIRGRPPRLPRPRPRPNCMPRP | 0.196
RRIRGRPPRLPRPRPRPNCNPRP | 0.199
RRIRGRPPRLPRPRPRPNEEPRP | 0.621
RRIRGRPPRLPRPRPRPNGEPRP | 1.81
RRIRGRPPRLPRPRPRPNHDPRP | -0.185
RRIRGRPPRLPRPRPRPNIFPRP | 0.398
RRIRGRPPRLPRPRPRPNLTPRP | 0.374
RRIRGRPPRLPRPRPRPNMCPRP | -0.0942
RRIRGRPPRLPRPRPRPNNCPRP | 0.101
RRIRGRPPRLPRPRPRPNPHPRP | 0.216
RRIRGRPPRLPRPRPRPNPKPRP | 0.391
RRIRGRPPRLPRPRPRPNRPPRP | -0.211
RRIRGRPPRLPRPRPRPNVQPRP | 1.08
RRIRGRPPRLPRPRPRPNVWPRP | 0.728
RRIRGRPPRLPRPRPRPNWIPRP | -0.034
RRIRGRPPRLPRPRPRPNYDPRP | 0.134
RRIRGRPPRLPRPRPRPNYQPRP | -0.173
RRIRGRPPRLPRPRPRPPASPRP | 1.07
RRIRGRPPRLPRPRPRPPCAPRP | 0.978
RRIRGRPPRLPRPRPRPPCIPRP | 0.117
RRIRGRPPRLPRPRPRPPCPPRP | 0.86

Sequence | shrunken log2 fold change
RRIRGRPPRLPRPRPRPPDEPRP | 1.27
RRIRGRPPRLPRPRPRPPDRPRP | 0.564
RRIRGRPPRLPRPRPRPPDYPRP | 0.135
RRIRGRPPRLPRPRPRPPEAPRP | 1.33
RRIRGRPPRLPRPRPRPPEIPRP | 0.851
RRIRGRPPRLPRPRPRPPEKPRP | 1.64
RRIRGRPPRLPRPRPRPPEQPRP | 1.29
RRIRGRPPRLPRPRPRPPGFPRP | 0.484
RRIRGRPPRLPRPRPRPPGRPRP | 1.35
RRIRGRPPRLPRPRPRPPGTPRP | 0.982
RRIRGRPPRLPRPRPRPPGYPRP | 0.737
RRIRGRPPRLPRPRPRPPHSPRP | 0.568
RRIRGRPPRLPRPRPRPPLCPRP | 0.616
RRIRGRPPRLPRPRPRPPLDPRP | 0.989
RRIRGRPPRLPRPRPRPPLVPRP | 0.813
RRIRGRPPRLPRPRPRPPMSPRP | 0.565
RRIRGRPPRLPRPRPRPPPTPRP | 1.47
RRIRGRPPRLPRPRPRPPQFPRP | 0.676
RRIRGRPPRLPRPRPRPPQQPRP | 0.825
RRIRGRPPRLPRPRPRPPQWPRP | 0.801
RRIRGRPPRLPRPRPRPPSFPRP | 0.653
RRIRGRPPRLPRPRPRPPTDPRP | 1.24
RRIRGRPPRLPRPRPRPPTFPRP | 0.572
RRIRGRPPRLPRPRPRPPTTPRP | 0.91
RRIRGRPPRLPRPRPRPPYQPRP | 0.123

Sequence | shrunken log2 fold change
RRIRGRPPRLPRPRPRPQATPRP | 1.2
RRIRGRPPRLPRPRPRPQCLPRP | 0.405
RRIRGRPPRLPRPRPRPQDQPRP | 0.531
RRIRGRPPRLPRPRPRPQECPRP | 0.226
RRIRGRPPRLPRPRPRPQFYPRP | 0.0417
RRIRGRPPRLPRPRPRPQGEPRP | 0.327
RRIRGRPPRLPRPRPRPQGMPRP | 0.0957
RRIRGRPPRLPRPRPRPQLEPRP | 0.838
RRIRGRPPRLPRPRPRPQNFPRP | 0.136
RRIRGRPPRLPRPRPRPQNHPRP | -0.18
RRIRGRPPRLPRPRPRPQNIPRP | -0.603
RRIRGRPPRLPRPRPRPQNWPRP | 0.0915
RRIRGRPPRLPRPRPRPQPDPRP | 0.821
RRIRGRPPRLPRPRPRPQPFPRP | -0.0232
RRIRGRPPRLPRPRPRPQPRPRP | 0.9
RRIRGRPPRLPRPRPRPQQSPRP | 0.465
RRIRGRPPRLPRPRPRPQRFPRP | 0.139
RRIRGRPPRLPRPRPRPQRIPRP | 0.178
RRIRGRPPRLPRPRPRPQRRPRP | 0.565
RRIRGRPPRLPRPRPRPQTDPRP | 0.381
RRIRGRPPRLPRPRPRPQVMPRP | 0.532
RRIRGRPPRLPRPRPRPQWEPRP | 0.0931
RRIRGRPPRLPRPRPRPQYGPRP | -0.008
RRIRGRPPRLPRPRPRPQYLPRP | 0.0284
RRIRGRPPRLPRPRPRPRAEPRP | 1.01

Sequence | shrunken log2 fold change
RRIRGRPPRLPRPRPRPRASPRP | 1.05
RRIRGRPPRLPRPRPRPRAYPRP | 0.338
RRIRGRPPRLPRPRPRPRDSPRP | 0.257
RRIRGRPPRLPRPRPRPREMPRP | 1.2
RRIRGRPPRLPRPRPRPRENPRP | 0.978
RRIRGRPPRLPRPRPRPRFTPRP | 0.582
RRIRGRPPRLPRPRPRPRGRPRP | 1.52
RRIRGRPPRLPRPRPRPRKDPRP | 0.726
RRIRGRPPRLPRPRPRPRKKPRP | 0.774
RRIRGRPPRLPRPRPRPRKQPRP | 0.875
RRIRGRPPRLPRPRPRPRMGPRP | 0.868
RRIRGRPPRLPRPRPRPRNHPRP | 0.563
RRIRGRPPRLPRPRPRPRNLPRP | -0.0805
RRIRGRPPRLPRPRPRPRPGPRP | 1.34
RRIRGRPPRLPRPRPRPRPKPRP | 1.41
RRIRGRPPRLPRPRPRPRPVPRP | 0.886
RRIRGRPPRLPRPRPRPRQTPRP | -0.144
RRIRGRPPRLPRPRPRPRQVPRP | 0.585
RRIRGRPPRLPRPRPRPRREPRP | 0.381
RRIRGRPPRLPRPRPRPRRNPRP | 0.609
RRIRGRPPRLPRPRPRPRTAPRP | 1.12
RRIRGRPPRLPRPRPRPRTQPRP | 0.826
RRIRGRPPRLPRPRPRPRVRPRP | 0.789
RRIRGRPPRLPRPRPRPRVTPRP | 0.744
RRIRGRPPRLPRPRPRPSANPRP | 0.858

Sequence | shrunken log2 fold change
RRIRGRPPRLPRPRPRPSAWPRP | 1.94
RRIRGRPPRLPRPRPRPSDSPRP | -0.0596
RRIRGRPPRLPRPRPRPSDVPRP | 0.0304
RRIRGRPPRLPRPRPRPSGEPRP | 0.598
RRIRGRPPRLPRPRPRPSIHPRP | 0.162
RRIRGRPPRLPRPRPRPSKFPRP | 0.0363
RRIRGRPPRLPRPRPRPSKKPRP | 0.609
RRIRGRPPRLPRPRPRPSLKPRP | 0.441
RRIRGRPPRLPRPRPRPSLLPRP | 0.547
RRIRGRPPRLPRPRPRPSLTPRP | 0.78
RRIRGRPPRLPRPRPRPSLVPRP | 0.473
RRIRGRPPRLPRPRPRPSLWPRP | 0.611
RRIRGRPPRLPRPRPRPSLYPRP | 0.189
RRIRGRPPRLPRPRPRPSMFPRP | 0.554
RRIRGRPPRLPRPRPRPSNMPRP | -0.113
RRIRGRPPRLPRPRPRPSNRPRP | 0.113
RRIRGRPPRLPRPRPRPSNVPRP | 0.175
RRIRGRPPRLPRPRPRPSPSPRP | 0.649
RRIRGRPPRLPRPRPRPSRVPRP | 0.61
RRIRGRPPRLPRPRPRPSRYPRP | -0.0843
RRIRGRPPRLPRPRPRPSVAPRP | 1.37
RRIRGRPPRLPRPRPRPSWNPRP | 0.285
RRIRGRPPRLPRPRPRPSYSPRP | -0.0047
RRIRGRPPRLPRPRPRPSYVPRP | 0.112
RRIRGRPPRLPRPRPRPTAEPRP | 3.04

Sequence | shrunken log2 fold change
RRIRGRPPRLPRPRPRPTCMPRP | 0.879
RRIRGRPPRLPRPRPRPTDDPRP | 1.01
RRIRGRPPRLPRPRPRPTGEPRP | 0.0778
RRIRGRPPRLPRPRPRPTGIPRP | -0.0412
RRIRGRPPRLPRPRPRPTGNPRP | 0.452
RRIRGRPPRLPRPRPRPTHSPRP | 0.587
RRIRGRPPRLPRPRPRPTIGPRP | 0.589
RRIRGRPPRLPRPRPRPTKEPRP | 0.439
RRIRGRPPRLPRPRPRPTKMPRP | 0.521
RRIRGRPPRLPRPRPRPTNDPRP | 0.564
RRIRGRPPRLPRPRPRPTPRPRP | 1.16
RRIRGRPPRLPRPRPRPTRFPRP | 0.19
RRIRGRPPRLPRPRPRPTRRPRP | 0.663
RRIRGRPPRLPRPRPRPTVVPRP | 0.41
RRIRGRPPRLPRPRPRPVADPRP | 1.34
RRIRGRPPRLPRPRPRPVAHPRP | 0.548
RRIRGRPPRLPRPRPRPVAMPRP | 1.02
RRIRGRPPRLPRPRPRPVCAPRP | 1.06
RRIRGRPPRLPRPRPRPVCCPRP | 0.957
RRIRGRPPRLPRPRPRPVCYPRP | 0.833
RRIRGRPPRLPRPRPRPVDCPRP | 0.496
RRIRGRPPRLPRPRPRPVHWPRP | 0.601
RRIRGRPPRLPRPRPRPVIFPRP | 0.598
RRIRGRPPRLPRPRPRPVKDPRP | 0.68
RRIRGRPPRLPRPRPRPVKHPRP | 0.168
